# Assay results as given in patent US20200102387A1 (CELGENE, published 2020).
# Where a chain is given by its changes, count along the chain named.
# T1: mouse SIRPα on cells (mouse, UniProt P97797 32-513)
# T1 construct: whole, on cells; also called mouse SIRPα-CHO-K1; Ms SIRPα-CHO-K1
# T1 sequence (looked up): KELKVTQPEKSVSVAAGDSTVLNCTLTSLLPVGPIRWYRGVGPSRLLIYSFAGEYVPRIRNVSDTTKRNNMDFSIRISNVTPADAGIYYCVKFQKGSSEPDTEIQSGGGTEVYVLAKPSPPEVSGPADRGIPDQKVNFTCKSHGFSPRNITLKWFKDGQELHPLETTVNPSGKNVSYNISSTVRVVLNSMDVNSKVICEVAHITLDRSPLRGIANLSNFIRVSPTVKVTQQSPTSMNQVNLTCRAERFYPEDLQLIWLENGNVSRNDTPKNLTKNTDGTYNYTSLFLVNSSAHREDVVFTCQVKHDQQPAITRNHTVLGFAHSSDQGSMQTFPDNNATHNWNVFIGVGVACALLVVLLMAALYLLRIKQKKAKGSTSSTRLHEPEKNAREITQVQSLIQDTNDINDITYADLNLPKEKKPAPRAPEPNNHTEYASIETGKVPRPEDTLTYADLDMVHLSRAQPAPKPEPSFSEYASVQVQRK
# T2: cynomolgus SIRPα on cells (cynomolgus, UniProt P78324 31-373 (human entry))
# T2 construct: also called cyno SIRPα-CHO; Cyno SIRPα-CHO-K1; not shown: Transmembrane and cytoplasmic region of cynomolgus SIRPα
# T2 chain: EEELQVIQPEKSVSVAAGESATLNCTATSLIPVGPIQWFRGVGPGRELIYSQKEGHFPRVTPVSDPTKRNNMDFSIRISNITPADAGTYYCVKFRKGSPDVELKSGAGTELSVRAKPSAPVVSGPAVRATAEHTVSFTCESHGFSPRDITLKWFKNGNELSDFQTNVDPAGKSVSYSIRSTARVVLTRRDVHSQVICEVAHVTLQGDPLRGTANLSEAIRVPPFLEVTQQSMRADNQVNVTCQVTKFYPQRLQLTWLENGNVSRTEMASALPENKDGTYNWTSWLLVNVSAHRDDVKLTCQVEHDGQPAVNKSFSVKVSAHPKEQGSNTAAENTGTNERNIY
# B1: SIRPAB-17 (antibody, human IgG1, kappa, V domains shown)
# VH: QVQLQESGPGLVKPSQTLSLTCTVSGGSISSGGYYWSWIRQHPGKGLEWIGAIYYSGPIYYNPSLKSRVTISVDTSKNQFSLKLSSVTAADTAVYYCAREGYHSGMDVWGQGTTVTVSS
# VL: DIQMTQSPSSLSASVGDRVTITCQASQDISNYLNWYQQKPGKAPKLLIYDASNLATGVPSRFSGSGSGTDFTFTISSLQPEDIATYYCQQFAYLPWTFGGGTKVEIKR
# B2: SIRPAB-21 (antibody, human IgG1, kappa, V domains shown)
# VH: B1 VH with A98S, R99K
# VL: B1 VL with Q27D, N31D, A55E
# B3: SIRPAB-11-AAS (antibody, human IgG1, kappa, L234A L235A)
# light: DIQMTQSPSSVSASVGDRVTITCRASQGISSWLAWYQQKPGKAPKLLIYAASNLQSGVPSRFSGSGSGTDFTLTISSLQPEDFATYYCQQGASFPITFGGGTKVEIKRTVAAPSVFIFPPSDEQLKSGTASVVCLLNNFYPREAKVQWKVDNALQSGNSQESVTEQDSKDSTYSLSSTLTLSKADYEKHKVYACEVTHQGLSSPVTKSFNRGEC
# heavy: QVQLVQSGAEVKKPGASVKVSCKASGYTFRGYGISWVRQAPGQGLEWMGWISAYGGETNYAQKLQGRVTMTTDTSTSTAYMELRSLRSDDTAVYYCAREAGSSWYDFDLWGRGTLVTVSSASTKGPSVFPLAPSSKSTSGGTAALGCLVKDYFPEPVTVSWNSGALTSGVHTFPAVLQSSGLYSLSSVVTVPSSSLGTQTYICNVNHKPSNTKVDKKVEPKSCDKTHTCPPCPAPEAAGGPSVFLFPPKPKDTLMISRTPEVTCVVVSVSHEDPEVKFNWYVDGVEVHNAKTKPREEQYNSTYRVVSVLTVLHQDWLNGKEYKCKVSNKALPAPIEKTISKAKGQPREPQVYTLPPSREEMTKNQVSLTCLVKGFYPSDIAVEWESNGQPENNYKTTPPVLDSDGSFFLYSKLTVDKSRWQQGNVFSCSVMHEALHNHYTQKSLSLSPGK
# notes: also called SIRPAB-11-IgG1-AAS
# B4: SIRPAB-10 (antibody, human IgG1, kappa, V domains shown)
# VH: QVQLVQSGAEVKKPGASVKVSCKASGYTFTGYPISWVRQAPGQGLEWMGWIYAYGGNTNYAQKLQGRVTMTTDTSTSTAYMELRSLRSDDTAVYYCAREAGSSWYDFDLWGRGTLVTVSS
# VL: DIQMTQSPSSVSASVGDRVTITCRASQGISSWLAWYQQKPGKAPKLLIYAASNLQSGVPSRFSGSGSGTDFTLTISSLQPEDFATYYCQQGASFPITFGGGTKVEIKR
# B5: SIRPAB-11 (antibody, human IgG1, kappa)
# light: B3 light
# heavy: not shown
# notes: also called SIRPAB-11-IgG1; SIRPAB-11 IgG1 antibody
# B6: SIRPAB-12 (antibody, human IgG1, kappa)
# light: B3 light
# heavy: not shown
# How the values were obtained:
# mouse SIRPα-Fc [1] = target: T3, mouse SIRPα-Fc (mouse); test: BLI Octet, antigen-Fc on biosensor
# T3 construct: a signal peptide may be part of the entry; also called Ms; Ms SIRPα-Fc
# NOD/SCID mouse SIRPα-Fc = target: T4, NOD/SCID mouse SIRPα-Fc (mouse (NOD/SCID)); test: BLI Octet, antigen-Fc on biosensor
# T4 construct: a signal peptide may be part of the entry; also called NOD/SCID Ms SIRPα-Fc
# mouse SIRPα on cells [2] = target: T1, mouse SIRPα on cells; test: cell binding, Ms SIRPα-CHO-K1 cells, 100 nM antibody
# FcγR3A (CD16aV158) = target: T5, FcγR3A (CD16aV158) (human, UniProt P08637 17-254); test: cell binding, FcγR-engineered HEK293 cells
# T5 construct: whole, on cells
# FcγR1 (CD64) = target: T6, FcγR1 (CD64) (human, UniProt P12314 16-374); test: cell binding, FcγR-engineered HEK293 cells
# T6 construct: whole, on cells
# [3] = target: T7, human SIRPα v1-Fc (SIRPα1 extracellular domain fused to human IGHG1_Fc) (human, UniProt P78324 31-373; P0DOX5 223-449 = IgG part); test: BLI Octet, antigen-Fc on biosensor;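 note: antigen captured on the biosensor tip and then immersed in solutions of the test antibodies, which act as the analyte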
# T7 construct: also called V1 (e.g. SIRPα1); SIRPα V1: DLN
# [4] = target: T8, human SIRPα v6-Fc (SIRPα6 extracellular domain fused to human IGHG1_Fc) (human, UniProt P78324 31-373; P0DOX5 223-449 = IgG part); test: BLI Octet, antigen-Fc on biosensor;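 note: antigen captured on the biosensor tip and then immersed in solutions of the test antibodies, which act as the analyte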
# T8 construct: as m38; also called V6 (e.g. SIRPα6)
# mouse SIRPα-Fc [5] = target: T3, mouse SIRPα-Fc; test: BLI Octet, antigen-Fc on biosensor; remark: listed apart in the source
# cyno SIRPα-Fc = target: T9, cyno SIRPα-Fc (cynomolgus); test: BLI Octet, antigen-Fc on biosensor;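 note: antigen captured on the biosensor tip and then immersed in solutions of the test antibodies, which act as the analyte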
# T9 construct: a signal peptide may be part of the entry
# [6] = target: T10, human SIRPα v3-Fc (SIRPα3 extracellular domain fused to human IGHG1_Fc) (human, UniProt P78324 31-373; P0DOX5 223-449 = IgG part); test: BLI Octet, antigen-Fc on biosensor;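 note: antigen captured on the biosensor tip and then immersed in solutions of the test antibodies, which act as the analyte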
# T10 construct: as m38; also called V3 (e.g. SIRPα3)
# [7] = target: T11, human SIRPα v2-Fc (SIRPα2 extracellular domain fused to human IGHG1_Fc) (human, UniProt P78324 31-373; P0DOX5 223-449 = IgG part); test: BLI Octet, antigen-Fc on biosensor
# T11 construct: as m38; also called V2 (e.g. SIRPα2); SIRPα V2:ESE
# human SIRPγ-Fc = target: T12, human SIRPγ-Fc (human); test: BLI Octet, antigen-Fc on biosensor
# T12 construct: a signal peptide may be part of the entry
# [8] = target: T13, human SIRPα v5-Fc (SIRPα5 extracellular domain fused to human IGHG1_Fc) (human, UniProt P78324 31-373; P0DOX5 223-449 = IgG part); test: BLI Octet, antigen-Fc on biosensor
# T13 construct: as m38; also called V5 (e.g. SIRPα5)
# human SIRPβ-Fc = target: T14, human SIRPβ-Fc (human); test: BLI Octet, antigen-Fc on biosensor
# T14 construct: a signal peptide may be part of the entry
# [9] = target: T15, human SIRPα v4-Fc (SIRPα4 extracellular domain fused to human IGHG1_Fc) (human, UniProt P78324 31-373; P0DOX5 223-449 = IgG part); test: BLI Octet, antigen-Fc on biosensor
# T15 construct: as m38; also called V4 (e.g. SIRPα4)
# human SIRPα on cells = target: T16, human SIRPα on cells (human, UniProt P78324 31-504); test: cell binding, Hu SIRPα-CHO-K1 cells, 100 nM antibody
# T16 construct: whole, on cells; also called human SIRPα-CHO; Hu SIRPα-CHO-K1
# [10] = target: T2, cynomolgus SIRPα on cells; test: cell binding, Cyno SIRPα-CHO-K1 cells, 100 nM antibody
# mouse SIRPα on cells [11] = target: T1, mouse SIRPα on cells; test: flow cytometry of mouse CD11b positive cells, FL2-H anti-human PE; concentration not given
# T4 sequence (chain, as listed by the source limits assumed): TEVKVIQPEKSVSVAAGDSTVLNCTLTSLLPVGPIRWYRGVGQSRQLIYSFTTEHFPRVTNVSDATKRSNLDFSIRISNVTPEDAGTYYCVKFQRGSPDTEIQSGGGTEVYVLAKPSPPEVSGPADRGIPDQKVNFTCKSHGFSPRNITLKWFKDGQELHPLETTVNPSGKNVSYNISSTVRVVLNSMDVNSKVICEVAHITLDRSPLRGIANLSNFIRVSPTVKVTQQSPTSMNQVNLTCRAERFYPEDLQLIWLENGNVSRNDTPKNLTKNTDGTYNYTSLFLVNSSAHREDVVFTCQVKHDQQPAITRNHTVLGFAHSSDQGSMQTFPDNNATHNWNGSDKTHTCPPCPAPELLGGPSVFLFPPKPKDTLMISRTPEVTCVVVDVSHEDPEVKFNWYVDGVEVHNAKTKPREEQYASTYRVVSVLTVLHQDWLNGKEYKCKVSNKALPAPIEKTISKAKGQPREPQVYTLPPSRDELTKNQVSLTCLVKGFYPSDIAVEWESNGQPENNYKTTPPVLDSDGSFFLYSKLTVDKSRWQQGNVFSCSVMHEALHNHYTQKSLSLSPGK
# T6 sequence (P12314 16-374): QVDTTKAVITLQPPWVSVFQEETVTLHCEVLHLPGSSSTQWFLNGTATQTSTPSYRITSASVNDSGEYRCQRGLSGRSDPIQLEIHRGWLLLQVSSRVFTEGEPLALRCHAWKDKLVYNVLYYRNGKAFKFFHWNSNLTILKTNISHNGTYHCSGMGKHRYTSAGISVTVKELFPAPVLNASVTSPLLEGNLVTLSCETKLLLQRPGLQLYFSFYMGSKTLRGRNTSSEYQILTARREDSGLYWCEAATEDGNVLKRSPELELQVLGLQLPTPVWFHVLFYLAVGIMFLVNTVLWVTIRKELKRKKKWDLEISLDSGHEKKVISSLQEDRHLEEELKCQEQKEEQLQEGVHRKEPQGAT
# T5 sequence (P08637 17-254 F176V): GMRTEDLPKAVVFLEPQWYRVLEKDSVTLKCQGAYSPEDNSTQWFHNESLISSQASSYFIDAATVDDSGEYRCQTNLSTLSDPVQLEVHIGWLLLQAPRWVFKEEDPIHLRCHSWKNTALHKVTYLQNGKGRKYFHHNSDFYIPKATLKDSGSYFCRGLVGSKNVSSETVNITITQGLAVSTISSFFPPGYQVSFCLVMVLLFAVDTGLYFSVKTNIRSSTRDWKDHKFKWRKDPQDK
Binder,Kd [3],koff [3],kon [3],Kd [4],koff [4],kon [4],binding result (mouse SIRPα-Fc [5]),Kd [6],koff [6],kon [6],Kd [7],koff [7],kon [7],Kd (human SIRPγ-Fc),koff (human SIRPγ-Fc),kon (human SIRPγ-Fc),Kd [8],koff [8],kon [8],Kd (human SIRPβ-Fc),other results
B1,,,,,,,,,,,,,,,,,,,,,Kd (mouse SIRPα-Fc [1]): 17.3 nM; koff (mouse SIRPα-Fc [1]): 0.00373 s⁻¹; kon (mouse SIRPα-Fc [1]): 220000 M⁻¹ s⁻¹; Kd (NOD/SCID mouse SIRPα-Fc): 152 nM; koff (NOD/SCID mouse SIRPα-Fc): 0.0228 s⁻¹; kon (NOD/SCID mouse SIRPα-Fc): 150000 M⁻¹ s⁻¹; fold increase over background (100 nM) (mouse SIRPα on cells [2]): 449 fold
B2,,,,,,,,,,,,,,,,,,,,,Kd (mouse SIRPα-Fc [1]): 1.46 nM; koff (mouse SIRPα-Fc [1]): 0.000708 s⁻¹; kon (mouse SIRPα-Fc [1]): 490000 M⁻¹ s⁻¹; Kd (NOD/SCID mouse SIRPα-Fc): 5.43 nM; koff (NOD/SCID mouse SIRPα-Fc): 0.0019 s⁻¹; kon (NOD/SCID mouse SIRPα-Fc): 350000 M⁻¹ s⁻¹; fold increase over background (100 nM) (mouse SIRPα on cells [2]): 2440 fold
B3,,,,,,,,,,,,,,,,,,,,,EC50 (FcγR3A (CD16aV158)): 15100 nM; EC50 (FcγR1 (CD64)): 3180 nM
B4,0.25 nM,0.000345 s⁻¹,1.4e+06 M⁻¹ s⁻¹,0.38 nM,0.000491 s⁻¹,1.28e+06 M⁻¹ s⁻¹,no binding,0.21 nM,0.000261 s⁻¹,1.24e+06 M⁻¹ s⁻¹,1.06 nM,0.00132 s⁻¹,1.25e+06 M⁻¹ s⁻¹,0.85 nM,0.00123 s⁻¹,1.45e+06 M⁻¹ s⁻¹,1.58 nM,0.00178 s⁻¹,1.13e+06 M⁻¹ s⁻¹,0.34 nM,Kd (cyno SIRPα-Fc): 4.89 nM; koff (cyno SIRPα-Fc): 0.00683 s⁻¹; kon (cyno SIRPα-Fc): 1.4e+06 M⁻¹ s⁻¹; koff (human SIRPβ-Fc): 0.000477 s⁻¹; kon (human SIRPβ-Fc): 1.4e+06 M⁻¹ s⁻¹; Kd [9]: 1.93 nM; koff [9]: 0.00267 s⁻¹; kon [9]: 1.38e+06 M⁻¹ s⁻¹; fold increase over background (100 nM) (human SIRPα on cells): 1170 fold; fold increase over background (100 nM) [10]: 1070 fold
B5,0.13 nM,0.0002 s⁻¹,1.49e+06 M⁻¹ s⁻¹,0.183 nM,0.000356 s⁻¹,1.94e+06 M⁻¹ s⁻¹,no binding,0.145 nM,0.0002 s⁻¹,1.38e+06 M⁻¹ s⁻¹,4.4 nM,0.00559 s⁻¹,1.27e+06 M⁻¹ s⁻¹,0.13 nM,0.000205 s⁻¹,1.57e+06 M⁻¹ s⁻¹,0.611 nM,0.00106 s⁻¹,1.73e+06 M⁻¹ s⁻¹,0.32 nM,Kd (cyno SIRPα-Fc): 4.9 nM; koff (cyno SIRPα-Fc): 0.00869 s⁻¹; kon (cyno SIRPα-Fc): 1.77e+06 M⁻¹ s⁻¹; koff (human SIRPβ-Fc): 0.000473 s⁻¹; kon (human SIRPβ-Fc): 1.49e+06 M⁻¹ s⁻¹; Kd [9]: 1.52 nM; koff [9]: 0.00228 s⁻¹; kon [9]: 1.5e+06 M⁻¹ s⁻¹; fold increase over background (100 nM) (human SIRPα on cells): 1890 fold; binding result (mouse SIRPα on cells [11]): no binding; fold increase over background (100 nM) [10]: 1950 fold
B6,0.81 nM,0.00107 s⁻¹,1.31e+06 M⁻¹ s⁻¹,1.58 nM,0.00256 s⁻¹,1.63e+06 M⁻¹ s⁻¹,no binding,0.53 nM,0.000694 s⁻¹,1.31e+06 M⁻¹ s⁻¹,15.4 nM,0.0151 s⁻¹,980000 M⁻¹ s⁻¹,1.49 nM,0.00218 s⁻¹,1.46e+06 M⁻¹ s⁻¹,4.87 nM,0.00697 s⁻¹,1.43e+06 M⁻¹ s⁻¹,3.35 nM,koff (human SIRPβ-Fc): 0.00445 s⁻¹; kon (human SIRPβ-Fc): 1.33e+06 M⁻¹ s⁻¹; Kd [9]: 8.13 nM; koff [9]: 0.0109 s⁻¹; kon [9]: 1.35e+06 M⁻¹ s⁻¹; fold increase over background (100 nM) (human SIRPα on cells): 2350 fold; binding result (mouse SIRPα on cells [11]): no binding; fold increase over background (100 nM) [10]: 2220 fold
